The values that follow come from PMC10546976.

The subject of one data set is neuPABP (PABPC1L2). As to the kind of experiment: EMSA. The note with it: […] (100 nM), 1 h at 30 C, pH not stated.
A further data set deals with PABPC1 (UniProt P11940 1-636). As to the kind of experiment: EMSA.
Chain of PABPC1 (P11940 whole entry): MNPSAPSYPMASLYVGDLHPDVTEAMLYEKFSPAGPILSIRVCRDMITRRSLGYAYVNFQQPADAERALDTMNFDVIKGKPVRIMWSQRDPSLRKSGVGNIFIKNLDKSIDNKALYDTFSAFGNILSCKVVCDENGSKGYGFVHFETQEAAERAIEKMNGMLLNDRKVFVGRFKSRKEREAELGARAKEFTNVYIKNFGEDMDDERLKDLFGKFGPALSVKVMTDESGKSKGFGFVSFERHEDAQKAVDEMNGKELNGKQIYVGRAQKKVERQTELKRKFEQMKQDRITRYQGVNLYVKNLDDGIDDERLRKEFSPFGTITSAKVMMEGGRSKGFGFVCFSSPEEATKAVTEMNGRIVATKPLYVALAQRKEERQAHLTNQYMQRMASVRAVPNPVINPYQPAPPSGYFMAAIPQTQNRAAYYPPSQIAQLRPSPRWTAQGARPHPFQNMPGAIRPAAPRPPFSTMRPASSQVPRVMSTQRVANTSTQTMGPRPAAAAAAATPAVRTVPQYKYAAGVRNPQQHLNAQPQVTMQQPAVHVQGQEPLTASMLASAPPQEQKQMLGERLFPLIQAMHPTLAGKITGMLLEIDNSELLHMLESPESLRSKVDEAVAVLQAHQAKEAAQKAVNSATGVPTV

Take AAAAAAAAAAAAAAAAAAAAAAAAA [oligo(A)25]: the Kd in the data set on neuPABP (PABPC1L2) was 50 nM.
On to AAAAAAAAAAAAAAAAAAAAAAAAA (ssRNA) [oligo(A)25], for which, in the data set with PABPC1, the Kd is around 50 nM.
